According to paper PMC6400558 (2019):
Numbering of substitutions follows the chain as printed. Numbers in names are those of the source.

T1: dynein intermediate chain (DIC), Q13409
T1 chain: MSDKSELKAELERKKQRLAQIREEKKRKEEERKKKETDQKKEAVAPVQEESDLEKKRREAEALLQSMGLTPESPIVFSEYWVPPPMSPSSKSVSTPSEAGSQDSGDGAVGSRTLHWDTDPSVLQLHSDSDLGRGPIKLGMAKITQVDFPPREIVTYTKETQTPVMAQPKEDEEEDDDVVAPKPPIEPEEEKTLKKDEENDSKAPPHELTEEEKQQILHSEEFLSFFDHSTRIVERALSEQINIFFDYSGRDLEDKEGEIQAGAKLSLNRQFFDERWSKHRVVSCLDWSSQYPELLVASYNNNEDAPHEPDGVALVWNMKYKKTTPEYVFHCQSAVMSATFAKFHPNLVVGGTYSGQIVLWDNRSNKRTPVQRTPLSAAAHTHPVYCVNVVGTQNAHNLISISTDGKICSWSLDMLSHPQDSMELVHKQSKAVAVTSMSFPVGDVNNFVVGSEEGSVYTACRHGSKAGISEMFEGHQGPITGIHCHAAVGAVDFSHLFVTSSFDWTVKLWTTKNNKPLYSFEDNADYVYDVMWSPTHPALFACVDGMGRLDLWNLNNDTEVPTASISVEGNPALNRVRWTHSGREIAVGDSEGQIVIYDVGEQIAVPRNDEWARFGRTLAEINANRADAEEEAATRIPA

B1: MBP-tagged Hook2 Hook+CC1 (N427) WT, Q96ED9 I150A (protein)
chain: MSVDKAELCGSLLTWLQTFHVPSPCASPQDLSSGLAVAYVLNQIDPSWFNEAWLQGISEDPGPNWKLKVSNLKMVLRSLVEYSQDVLAHPVSEEHLPDVSLIGEFSDPAELGKLLQLVLGCAISCEKKQDHIQRIMTLEESVQHVVMEAAQELMTKDTPDSLSPETYGNFDSQSRRYYFLSEEAEEGDELQQRCLDLERQLMLLSEEKQSLAQENAGLRERMGRPEGEGTPGLTAKKLLLLQSQLEQLQEENFRLESGREDERLRCAELEREVAELQHRNQALTSLAQEAQALKDEMDELRQSSERAGQLEATLTSCRRRLGELRELRRQVRQLEERNAGHAERTRQLEDELRRAGSLRAQLEAQRRQVQELQGQRQEEAMKAEKWLFECRNLEEKYESVTKEKERLLAERDSLREANEELRCAQLQ
B2: MBP-tagged Hook2 Hook+CC1 (N427) WT, Q96ED9 Q143A (protein)
chain: B1 chain with Q143A, A150I

Target: T1, dynein intermediate chain (DIC), Q13409
Assay: MBP pull-down from HEK293T cell lysate, immunoblot, band intensity quantified
Conditions: chain shown with the change; n = 3; parent: est. 0.46; read off a plot

Row | Binder | response (Pulldown/Input)
1 | B1 | 0.02
2 | B2 | 0.02
